These results are taken from paper PMC8623652.

Assay [1] has as its target NCS-1 in HEK293 cells transfected with NCS-1-pCI-neo (UniProt P62166). Kind of assay: Western blotting of cell lysates under non-reducing conditions (disulfide dimer); HEK293 cells transfected with NCS-1, 10 mM H2O2 for 30 min or longer, with or without Ca2+/ionomycin, EGTA, or Zn2+ with chloroquine; lysis with 10 mM iodoacetamide; dimer fraction by densitometry. A general note: In western blotting, separated proteins are transferred to a membrane and probed.

The target in assay [2] is Neuronal calcium sensor-1 (NCS-1), recombinant, myristoylated, reduced monomer (UniProt P62166). Kind of assay: SEC; analytical gel filtration on Superdex 75 10/300 GL, 20 mM Tris-HCl pH 8.0, 150 mM NaCl, 1 mM DTT (non-oxidizing), with 0.1 mM ZnCl2 or 1 mM EGTA. Background: Size exclusion chromatography separates by hydrodynamic size, large species first.
Assay [3] has the same target. In words: SDS-PAGE under non-reducing conditions (disulfide dimer); preparation of dNCS-1: NCS-1 2 mg/mL dialysed against 20 mM Tris-HCl pH 8.0, 150 mM NaCl, 1 mM H2O2, 4 °C, 3 h.
The target is the same in assay [4]. In words: redox equilibrium with GSSG/GSH, SDS-PAGE under non-reducing conditions; 1.5 µM dNCS-1, 50 mM HEPES pH 7.4, 100 mM KCl, 0.1 mM CaCl2 or 1 mM MgCl2, 0.1 mM GSSG and 8.8 µM–72.4 mM GSH, anaerobic, 35 °C, 62 h; densitometry.
The target is the same in assay [5]. Kind of assay: SDS-PAGE under non-reducing conditions (disulfide dimer); 20 μM reduced NCS-1 with 0.1–1000 μM H2O2, 20 mM Tris-HCl pH 8.0, 150 mM NaCl, with 1 mM MgCl2, 1 mM CaCl2, 0.1 mM ZnCl2 or their combinations (1% SDS in controls), 37 °C, 30 min; densitometry.
Assay [6] concerns the target Chimera GRK1^N-C, fusion protein containing regulatory domains of GRK1 (GRK1 1-191,512-557) (UniProt P28327). In words: SPR; GRK1^N-C immobilised by amine coupling on a ProteOn GLH chip (up to 12,000 RU); analyte NCS-1 or dNCS-1 0.5 to 20 μM; 25 °C; 10 mM HEPES pH 7.4, 150 mM NaCl, 1 mM CaCl2, 0.05% Tween 20; global fits by the heterogeneous ligand model (both) or the bivalent analyte model (dNCS-1). In general terms: In SPR one partner is held on a chip, and binding of the other changes the refractive index at the surface.
UniProt P28327, sequence (P28327 other isoform, or with tags, fused parts or gaps mutant): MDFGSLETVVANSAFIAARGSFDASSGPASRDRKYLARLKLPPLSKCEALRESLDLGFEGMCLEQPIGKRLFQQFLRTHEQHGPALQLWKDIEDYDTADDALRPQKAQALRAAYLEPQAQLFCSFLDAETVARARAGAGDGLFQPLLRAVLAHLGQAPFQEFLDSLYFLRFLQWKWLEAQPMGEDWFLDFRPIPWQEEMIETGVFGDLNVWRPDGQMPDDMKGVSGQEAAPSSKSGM

Usually stoichiometry N stands for a count of units in the complex or per binding partner. “NCS-1 in HEK293 cells transfected with NCS-1-pCI-neo (from UniProt P62166 1-190) (natural protein)”: in assay [1], the dimer content (prolonged incubation with Zn2+/H2O2) fell in the range of 25 to 30%; the fraction of dNCS-1 of total protein (H2O2 after Zn2+ with chloroquine) was 9%; the fraction of the dimer of total NCS-1 (10 mM H2O2, 30 min) was 4 to 5%; the stoichiometry N worked out at 2.

Consider “Neuronal calcium sensor-1 (NCS-1), recombinant, myristoylated, reduced monomer (from UniProt P62166 1-190) (natural protein)”, for which, in assay [2], the stoichiometry N turned out to be 2. Also, in assay [3], the dNCS-1 in the dialysis mixture (1 mM H2O2) is 80%. The dNCS-1 of total NCS-1 (Ca2+, Eh GSSG/GSH ~ −220 mV) in assay [4] was in the range of 5 to 10%. Further, in assay [5], the dimer content (Zn2+-bound NCS-1, H2O2) came out at 75%; the dimer fraction of total protein (the forms of Figure 4B, H2O2) is under 30%; the stoichiometry N stood at 2. In assay [6], this substance came in with a KD 1 (heterogeneous ligand model) of 590 nM, a KD 2 (heterogeneous ligand model) of 2700 nM, a koff 1 (heterogeneous ligand model) of 0.00016 s⁻¹ and a koff 2 (heterogeneous ligand model) of 0.0044 s⁻¹. In assay [6], this substance gave a kon 1 (heterogeneous ligand model) of 267 M⁻¹ s⁻¹ and a kon 2 (heterogeneous ligand model) of 1910 M⁻¹ s⁻¹.
